# Assay results: paper PMC9482650, “Quantitative fragmentomics allow affinity mapping of interactomes” (Nature Communications, 2022)
# T1: SHANK1, Q9Y566
# T1 sequence (Q9Y566 658-767, limits assumed, looked up): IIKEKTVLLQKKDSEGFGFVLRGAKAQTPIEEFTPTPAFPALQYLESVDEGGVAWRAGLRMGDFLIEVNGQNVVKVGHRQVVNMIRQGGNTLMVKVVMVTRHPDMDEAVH
# T2: DLG3_1, Q92796
# T2 sequence (Q92796 125-227, limits assumed, looked up): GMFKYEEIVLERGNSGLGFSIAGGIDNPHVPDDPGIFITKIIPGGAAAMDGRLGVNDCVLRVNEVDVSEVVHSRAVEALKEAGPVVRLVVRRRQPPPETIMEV
# T3: DVL3, Q92997
# T3 sequence (Q92997 244-331, limits assumed, looked up): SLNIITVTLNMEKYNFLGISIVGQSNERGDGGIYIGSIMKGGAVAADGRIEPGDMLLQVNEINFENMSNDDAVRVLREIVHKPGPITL
# T4: SNTB1, Q13884
# T4 sequence (Q13884 107-205, limits assumed, looked up): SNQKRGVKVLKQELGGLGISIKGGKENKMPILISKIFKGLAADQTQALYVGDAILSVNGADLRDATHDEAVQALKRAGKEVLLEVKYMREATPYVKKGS
# T5: SYNJ2BP, P57105
# T5 sequence (P57105 8-110, limits assumed, looked up): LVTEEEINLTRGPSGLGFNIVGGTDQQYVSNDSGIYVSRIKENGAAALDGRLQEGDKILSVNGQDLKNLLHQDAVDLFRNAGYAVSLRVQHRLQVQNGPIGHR
# T6: TJP3_3, O95049
# T6 sequence (O95049 375-456, limits assumed, looked up): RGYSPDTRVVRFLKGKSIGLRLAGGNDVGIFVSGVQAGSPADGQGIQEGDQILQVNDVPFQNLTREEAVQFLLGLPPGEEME
# T7: APBA2_1, Q99767
# T7 sequence (Q99767 563-664, limits assumed, looked up): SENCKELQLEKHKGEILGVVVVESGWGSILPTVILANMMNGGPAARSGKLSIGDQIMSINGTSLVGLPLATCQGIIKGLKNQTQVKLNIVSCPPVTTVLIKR
# T8: GRIP1_5, Q9Y3R0
# T8 sequence (Q9Y3R0 568-668, limits assumed, looked up): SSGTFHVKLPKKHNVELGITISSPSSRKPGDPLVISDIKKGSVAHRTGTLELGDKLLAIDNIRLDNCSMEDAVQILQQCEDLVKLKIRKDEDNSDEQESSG
# T9: FRMPD1, Q5SYB0
# T9 sequence (Q5SYB0 52-145, limits assumed, looked up): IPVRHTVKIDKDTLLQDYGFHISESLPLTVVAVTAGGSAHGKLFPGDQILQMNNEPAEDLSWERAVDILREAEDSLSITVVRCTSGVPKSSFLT
# T10: APBA3_1, O96018
# T10 sequence (O96018 389-490, limits assumed, looked up): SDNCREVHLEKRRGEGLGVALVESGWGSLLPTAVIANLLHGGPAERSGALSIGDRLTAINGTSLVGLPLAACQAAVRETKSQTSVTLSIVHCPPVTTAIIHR
# T11: ARHGAP21, Q5T5U3
# T11 sequence (Q5T5U3 45-169, limits assumed, looked up): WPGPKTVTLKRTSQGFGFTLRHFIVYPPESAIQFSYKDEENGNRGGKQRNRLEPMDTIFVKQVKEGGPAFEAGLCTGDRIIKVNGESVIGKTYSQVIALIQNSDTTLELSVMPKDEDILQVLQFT
# T12: PDZD7_3, Q9H5P4
# T12 sequence (Q9H5P4 857-944, limits assumed, looked up): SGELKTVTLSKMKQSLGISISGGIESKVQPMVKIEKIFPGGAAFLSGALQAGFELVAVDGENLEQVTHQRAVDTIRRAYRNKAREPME
# T13: DLG3_2, Q92796
# T13 sequence (Q92796 221-321, limits assumed, looked up): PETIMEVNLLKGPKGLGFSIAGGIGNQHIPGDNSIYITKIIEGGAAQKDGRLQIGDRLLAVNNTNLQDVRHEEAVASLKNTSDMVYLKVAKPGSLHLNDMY
# B1: TRPM1, Q7Z4N2 (peptide)
# chain: KEKASTETEC
# Molecular target: GRID2IP_2, A4D2P6
# Sequence (A4D2P6 272-370): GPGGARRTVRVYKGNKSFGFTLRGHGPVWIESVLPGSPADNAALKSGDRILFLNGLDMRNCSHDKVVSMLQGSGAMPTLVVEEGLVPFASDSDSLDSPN
# Test: holdup assay
# Design: key: below the threshold = too weak to quantify, mostly under pKd 3.1 to 4
# Settings: plain residues with an end cap or a label only (N-terminal biotin on a linker: ado-ado)
row,pKd,Binder
1,below the threshold,B1

# Molecular target: T1, SHANK1, Q9Y566
# Test: holdup assay
# Design: key: below the threshold = too weak to quantify, mostly under pKd 3.1 to 4
# Settings: plain residues with an end cap or a label only (N-terminal biotin on a linker: ado-ado)
row,pKd,Binder
1,below the threshold,B1

# Molecular target: MAGI2_5, Q86UL8
# Sequence (Q86UL8 915-1017): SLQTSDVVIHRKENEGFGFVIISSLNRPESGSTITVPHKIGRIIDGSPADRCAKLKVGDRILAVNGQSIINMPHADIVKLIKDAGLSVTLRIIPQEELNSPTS
# Test: holdup assay
# Design: key: below the threshold = too weak to quantify, mostly under pKd 3.1 to 4
# Settings: plain residues with an end cap or a label only (N-terminal biotin on a linker: ado-ado)
row,pKd,Binder
1,below the threshold,B1

# Molecular target: HTRA1, Q92743
# Sequence (Q92743 360-477): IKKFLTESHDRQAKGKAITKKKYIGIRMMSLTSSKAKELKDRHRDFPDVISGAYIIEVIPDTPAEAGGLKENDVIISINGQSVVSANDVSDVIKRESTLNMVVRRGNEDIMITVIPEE
# Test: holdup assay
# Design: key: below the threshold = too weak to quantify, mostly under pKd 3.1 to 4
# Settings: plain residues with an end cap or a label only (N-terminal biotin on a linker: ado-ado)
row,pKd,Binder
1,3.62,B1

# Molecular target: T2, DLG3_1, Q92796
# Test: holdup assay
# Design: key: below the threshold = too weak to quantify, mostly under pKd 3.1 to 4
# Settings: plain residues with an end cap or a label only (N-terminal biotin on a linker: ado-ado)
row,pKd,Binder
1,below the threshold,B1

# Molecular target: T3, DVL3, Q92997
# Test: holdup assay
# Design: key: below the threshold = too weak to quantify, mostly under pKd 3.1 to 4
# Settings: plain residues with an end cap or a label only (N-terminal biotin on a linker: ado-ado)
row,pKd,Binder
1,below the threshold,B1

# Molecular target: T4, SNTB1, Q13884
# Test: holdup assay
# Design: key: below the threshold = too weak to quantify, mostly under pKd 3.1 to 4
# Settings: plain residues with an end cap or a label only (N-terminal biotin on a linker: ado-ado)
row,pKd,Binder
1,4.17,B1

# Molecular target: T5, SYNJ2BP, P57105
# Test: holdup assay
# Design: key: below the threshold = too weak to quantify, mostly under pKd 3.1 to 4
# Settings: plain residues with an end cap or a label only (N-terminal biotin on a linker: ado-ado)
row,pKd,Binder
1,3.83,B1

# Molecular target: MAST1, Q9Y2H9
# Sequence (Q9Y2H9 962-1065): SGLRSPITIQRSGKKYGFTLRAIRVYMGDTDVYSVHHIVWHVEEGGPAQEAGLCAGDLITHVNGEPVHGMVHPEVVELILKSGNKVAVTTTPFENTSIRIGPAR
# Test: holdup assay
# Design: key: below the threshold = too weak to quantify, mostly under pKd 3.1 to 4
# Settings: plain residues with an end cap or a label only (N-terminal biotin on a linker: ado-ado)
row,pKd,Binder
1,4.09,B1

# Molecular target: T6, TJP3_3, O95049
# Test: holdup assay
# Design: key: below the threshold = too weak to quantify, mostly under pKd 3.1 to 4
# Settings: plain residues with an end cap or a label only (N-terminal biotin on a linker: ado-ado)
row,pKd,Binder
1,below the threshold,B1

# Molecular target: T7, APBA2_1, Q99767
# Test: holdup assay
# Design: key: below the threshold = too weak to quantify, mostly under pKd 3.1 to 4
# Settings: plain residues with an end cap or a label only (N-terminal biotin on a linker: ado-ado)
row,pKd,Binder
1,below the threshold,B1

# Molecular target: GRIP2_4, Q9C0E4
# Sequence (Q9C0E4 446-548): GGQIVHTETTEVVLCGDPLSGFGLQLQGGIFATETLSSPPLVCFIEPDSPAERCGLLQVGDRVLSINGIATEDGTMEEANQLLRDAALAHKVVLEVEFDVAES
# Test: holdup assay
# Design: key: below the threshold = too weak to quantify, mostly under pKd 3.1 to 4
# Settings: plain residues with an end cap or a label only (N-terminal biotin on a linker: ado-ado)
row,pKd,Binder
1,below the threshold,B1

# Molecular target: PDLIM1, O00151
# Sequence (O00151 1-87): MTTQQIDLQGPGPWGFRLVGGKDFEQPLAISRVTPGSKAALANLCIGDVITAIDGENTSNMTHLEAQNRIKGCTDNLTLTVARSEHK
# Test: holdup assay
# Design: key: below the threshold = too weak to quantify, mostly under pKd 3.1 to 4
# Settings: plain residues with an end cap or a label only (N-terminal biotin on a linker: ado-ado)
row,pKd,Binder
1,below the threshold,B1

# Molecular target: T8, GRIP1_5, Q9Y3R0
# Test: holdup assay
# Design: key: below the threshold = too weak to quantify, mostly under pKd 3.1 to 4
# Settings: plain residues with an end cap or a label only (N-terminal biotin on a linker: ado-ado)
row,pKd,Binder
1,below the threshold,B1

# Molecular target: T9, FRMPD1, Q5SYB0
# Test: holdup assay
# Design: key: below the threshold = too weak to quantify, mostly under pKd 3.1 to 4
# Settings: plain residues with an end cap or a label only (N-terminal biotin on a linker: ado-ado)
row,pKd,Binder
1,below the threshold,B1

# Molecular target: T10, APBA3_1, O96018
# Test: holdup assay
# Design: key: below the threshold = too weak to quantify, mostly under pKd 3.1 to 4
# Settings: plain residues with an end cap or a label only (N-terminal biotin on a linker: ado-ado)
row,pKd,Binder
1,below the threshold,B1

# Molecular target: T11, ARHGAP21, Q5T5U3
# Test: holdup assay
# Design: key: below the threshold = too weak to quantify, mostly under pKd 3.1 to 4
# Settings: plain residues with an end cap or a label only (N-terminal biotin on a linker: ado-ado)
row,pKd,Binder
1,3.97,B1

# Molecular target: T12, PDZD7_3, Q9H5P4
# Test: holdup assay
# Design: key: below the threshold = too weak to quantify, mostly under pKd 3.1 to 4
# Settings: plain residues with an end cap or a label only (N-terminal biotin on a linker: ado-ado)
row,pKd,Binder
1,below the threshold,B1

# Molecular target: T13, DLG3_2, Q92796
# Test: holdup assay
# Design: key: below the threshold = too weak to quantify, mostly under pKd 3.1 to 4
# Settings: plain residues with an end cap or a label only (N-terminal biotin on a linker: ado-ado)
row,pKd,Binder
1,3.92,B1

# Molecular target: SCRIB_2, Q14160
# Sequence (Q14160 857-960): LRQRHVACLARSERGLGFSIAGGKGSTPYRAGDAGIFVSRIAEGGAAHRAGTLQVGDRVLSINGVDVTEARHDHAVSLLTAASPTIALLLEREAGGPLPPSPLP
# Test: holdup assay
# Design: key: below the threshold = too weak to quantify, mostly under pKd 3.1 to 4
# Settings: plain residues with an end cap or a label only (N-terminal biotin on a linker: ado-ado)
row,pKd,Binder
1,3.52,B1

# Molecular target: MAGI2_6, Q86UL8
# Sequence (Q86UL8 1141-1229): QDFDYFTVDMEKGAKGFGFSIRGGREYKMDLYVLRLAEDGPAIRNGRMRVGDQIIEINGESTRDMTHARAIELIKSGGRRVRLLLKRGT
# Test: holdup assay
# Design: key: below the threshold = too weak to quantify, mostly under pKd 3.1 to 4
# Settings: plain residues with an end cap or a label only (N-terminal biotin on a linker: ado-ado)
row,pKd,Binder
1,below the threshold,B1

# Molecular target: Inadl_6, Q8NI35
# Sequence (Q8NI35 1058-1167): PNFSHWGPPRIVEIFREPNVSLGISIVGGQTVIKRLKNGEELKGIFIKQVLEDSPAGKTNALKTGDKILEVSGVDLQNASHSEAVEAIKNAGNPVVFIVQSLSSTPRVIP
# Test: holdup assay
# Design: key: below the threshold = too weak to quantify, mostly under pKd 3.1 to 4
# Settings: plain residues with an end cap or a label only (N-terminal biotin on a linker: ado-ado)
row,pKd,Binder
1,below the threshold,B1

# Molecular target: Inadl_4, Q8NI35
# Sequence (Q8NI35 547-651): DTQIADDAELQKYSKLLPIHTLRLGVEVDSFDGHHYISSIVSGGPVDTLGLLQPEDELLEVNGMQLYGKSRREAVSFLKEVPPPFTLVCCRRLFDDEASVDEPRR
# Test: holdup assay
# Design: key: below the threshold = too weak to quantify, mostly under pKd 3.1 to 4
# Settings: plain residues with an end cap or a label only (N-terminal biotin on a linker: ado-ado)
row,pKd,Binder
1,below the threshold,B1

# Molecular target: DLG1_2, Q12959
# Sequence (Q12959 314-412): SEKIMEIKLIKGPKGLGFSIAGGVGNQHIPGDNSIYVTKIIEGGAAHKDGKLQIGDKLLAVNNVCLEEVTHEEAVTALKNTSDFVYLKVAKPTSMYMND
# Test: holdup assay
# Design: key: below the threshold = too weak to quantify, mostly under pKd 3.1 to 4
# Settings: plain residues with an end cap or a label only (N-terminal biotin on a linker: ado-ado)
row,pKd,Binder
1,4.23,B1
